Results on 25 molecules are retold here after paper PMC2582146 (Biochemistry, 2008).

No end group written: not given here.

The target in one assay is T1, NHERF1 PDZ1 domain (human, UniProt O14745 1-139).
T1 sequence (looked up): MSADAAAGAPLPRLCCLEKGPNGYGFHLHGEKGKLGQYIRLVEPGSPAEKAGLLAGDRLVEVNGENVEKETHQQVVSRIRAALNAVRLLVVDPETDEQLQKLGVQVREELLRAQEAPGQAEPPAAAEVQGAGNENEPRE
Briefly: fluorescence polarisation.
On to CDTRL [C-CFTR4], for which affinity was put at a Ki of 0.949 µM.

The next assay deals with T1, NHERF1 PDZ1 domain. Briefly: fluorescence polarisation. This is another data set of the same source. (Fluorescence polarisation rises when a labelled molecule tumbles more slowly, as on binding a larger partner.)
On to CVQDTRL [C-CFTR6], for which the Ki (commonly a dissociation constant, usually derived from enzyme kinetics or from competition with a known ligand) amounted to 0.67 ± 0.097 µM. Same read-out and setting: to CGGAALKEETEEEVQDTRL [CGG-CFTR16] belongs 0.209 ± 0.064 µM; to CTEEEVQDTRL [C-CFTR10], 0.597 ± 0.077 µM. The same measure, in the same setting: the value for CDTRL [C-CFTR4] was 1.52 ± 0.078 µM.

The target of a further assay is T2, CAL PDZ domain (UniProt Q9HD26-2 278-362). Briefly: fluorescence polarisation.
In turn, CEVYLLNSTTL [C-ClC3B10] gave a Ki of 110 ± 60 µM. On the same count and under the same terms, the value for CRPGFASESKV [C-β1AR10] was 410 ± 190 µM; that for CANGLMQTSKL [C-SSR5_(10)] was 22.6 ± 7.1 µM.

The target of another assay is T2, CAL PDZ domain. Briefly: fluorescence polarisation. This is another data set of the same source.
With CEVYLLNSTTL [C-ClC3B10], the Ki worked out at 93 ± 8.5 µM. With CQPRTWLQSPV [C-RTKN10], affinity was put at a Ki of 229 ± 16 µM.

For the molecule CALDTSHGTSI [C-GluRδ1_(10)], affinity was put at a Ki of 875 ± 56 µM. The same measure, in the same setting: to CNQLAWFDTDL [C-βCAT10] belongs 1110 ± 480 µM; to CHPHSHSTTRV [C-NLG10], 158 ± 19 µM; to CHRTCYLVTQL [C-AIC3A10], 42.2 ± 4.2 µM.

In turn, CTEEEVQDTRL [C-CFTR10] registered a Ki of 690 ± 120 µM. The same measure, in the same setting: the value for CRPGFASESKV [C-β1AR10] was 510 ± 110 µM; that for CYPKQMPLSQV [C-FRZ8_(10)] was 47 ± 10 µM. Still for that read-out and setting: the value for CANGLMQTSKL [C-SSR5_(10)] was 37.6 ± 4 µM; that for CAPIAGFSSFV [C-SDK2_(10)] was 150 ± 20 µM; that for CYHKQVSLSHV [C-FRZ5_(10)] was 451 ± 42 µM. Still for that read-out and setting: to CGNDPDRGTSI [C-GluRδ2_(10)] belongs 560 ± 130 µM. As to CLPHPHSTTRV [C-NLG2_(10)], the Ki amounted to 107 ± 1.7 µM.

For CKKMPSIESDV [C-NR2A10], the Ki came to 1940 ± 920 µM.

In the case of CDGQMQLVTSL [C-CL1_(10)], the Ki amounted to 88.3 ± 6.3 µM.

In another assay the target is T1, NHERF1 PDZ1 domain. Briefly: ITC. For orientation: Isothermal titration calorimetry measures the heat released or taken up as one component is titrated into another.
In turn, TEEEVQDTRL [CFTR10] came in with a dH of -9.11 kcal/mol.

For the next assay, the target named is T1, NHERF1 PDZ1 domain. Briefly: ITC. The source holds these as a separate data set.
Turning to TEEEVQDTRL [CFTR10], the affinity, expressed as Kd, was 0.787 ± 0.055 µM; the dH was -10.4 ± 0.19 kcal/mol; the “dH extrapolated to 37 °C” value is -12.2 kcal/mol.

Another assay addresses T1, NHERF1 PDZ1 domain. Briefly: SPR. In general terms: SPR reads the build-up and loss of mass on a sensor chip optically.
Regarding CTEEEVQDTRL [C-CFTR10], the Kd (as a rule, the free concentration of one partner at which half of the binding sites on the other are occupied at equilibrium, for simple one-to-one binding) is 0.0103 µM.

The target in the next assay is T2, CAL PDZ domain. Briefly: peptide or protein array.
In the case of ETEEEVQDTRL (peptide, UniProt P13569 1470-1480, looked up) [CFTR C-terminal undecamer peptide on the HUMLIB array], the binding result is listed as “binds”. Same read-out and setting: the value for AANGLMQTSKL (peptide, UniProt P35346 354-364, looked up) [SSR5 C-terminal undecamer peptide on the HUMLIB array] was “binds”.

For the next assay, the target named is T1, NHERF1 PDZ1 domain. Briefly: fluorescence polarisation. The source holds these as a separate data set.
fluorescein-TEEEVQDTRL [F*-CFTR10]: the Kd was determined as 0.279 ± 0.021 µM. The molecule fluorescein-GGAALKEETEEEVQDTRL [F*GG-CFTR16] displayed a Kd of 0.116 ± 0.01 µM. Same read-out and setting: the value for C(fluorescein‑5‑maleimide)DTRL [F*C-CFTR4] was 0.949 ± 0.089 µM.
